Results: US20220356245A1 (FORTY SEVEN, published 2022)
Where two headings read alike, the source gives them in different places.

Key:
[1] = biological target: T1, human CD47 (hCD47) expressed on cells (human, UniProt Q08722 19-323); assay: flow cytometry, Raji cells
T1 construct: Transfected CHO cells or endogenous CD47 of human cells; also called CHO-hCD47; CD47 on Raji cells
Procedure: Raji cells (ATCC-CLL-86; 2×10⁵ cells/well of 96-well plate) were first incubated at +4° C. for 30 minutes with serial dilutions of anti-CD47 antibodies or control isotype antibody (in mIgG2a or mIgG1 format). The cells were then washed and incubated for 30 minutes at +4° C. with a PE-conjugated F(ab)′2 goat anti-mouse IgG antibody ( 1/100 dilution, Beckman Coulter). After washings, the fluorescence of the cells was analyzed by flow cytometry on an Accuri-C6 flow cytometer (BD Biosciences).
The delta of MFI, representing the difference between the intensity measured with the tested antibody and the intensity in the absence of antibody, was calculated for each antibody concentration and the values were plotted against the antibody concentrations. The EC50 values were then calculated by using a nonlinear regression analysis model of the GraphPad Prism software.

[2] = biological target: T2, hu-sCD47-6His; extracellular domain of human CD47 antigen with 6His-tag (human); assay: SPR Biacore T200, antibody captured, hCD47-his analyte;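 note: antibodies captured on anti-IgG (Fc) CM5 chip, five sequential 10 min antigen injections at rising concentrations, reference flow cell and antigen-free cycle as controls, 1:1 model fit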
T2 construct: also called hCD47-his; soluble hCD47
Source text: (§1) An anti-human or anti-mouse IgG (Fc) was first immobilized on the surface of Serie S Sensor Chips CM5 using the human or mouse antibody capture and amine coupling kits, following the manufacturer's instructions (GE Healthcare). […] The mouse, chimerized or humanized antibodies to be tested were then captured onto the appropriate anti-mouse or anti-human IgG surface in all flow cells except flow cell 1 used as control, at concentration and contact time adjusted so that ˜300 RU were captured on the surface. Binding kinetics were studied by passing increasing concentrations of hCD47-his in a series of five 10 minute injections through all flow cells at a rate of 30 μL/min. […] Following the final injection, buffer was passed across each flow cell for 60 minutes (mouse) or 30 minutes (human) to monitor the dissociation of bound antigen. Regeneration of the binding surface was carried out at the end of the cycle by flowing 3 M MgCl₂ for 60 s at 20 μL/min followed by 10 mM glycine-HCl, pH 1.7 for 180 s at 10 μl/min (for human) or by flowing 10 mM glycine-HCl, ph 1.7 for 360 s at 10 μl/min (for mouse). A second cycle with the same antibodies but no antigen was run as a control. Kinetics binding constants were estimated by non-linear fitting of the sensogram data to the 1:1 binding model provided by the Biacore T200 evaluation software.

[3] = biological target: T1, human CD47 (hCD47) expressed on cells; assay: flow cytometry, Raji cells, competition with hSIRPα
[4] = biological target: T3, mouse CD47 (mCD47) expressed on CHO cells (mouse, UniProt Q61735 19-303); assay: flow cytometry, CHO-mCD47 cells (not shown)
T3 construct: whole, on cells; also called CHO-mCD47
T3 sequence (looked up): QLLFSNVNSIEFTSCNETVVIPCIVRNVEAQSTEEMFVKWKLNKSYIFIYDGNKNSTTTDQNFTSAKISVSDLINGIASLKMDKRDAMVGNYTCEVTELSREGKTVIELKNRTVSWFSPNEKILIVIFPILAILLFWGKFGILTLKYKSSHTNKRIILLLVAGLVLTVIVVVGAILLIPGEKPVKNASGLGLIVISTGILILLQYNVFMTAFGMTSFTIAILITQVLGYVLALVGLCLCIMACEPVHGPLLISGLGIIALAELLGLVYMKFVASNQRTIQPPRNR

[5] = biological target: T2, hu-sCD47-6His; extracellular domain of …; assay: SPR Biacore;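 note: antibodies captured on anti-IgG CM5 chip, soluble His-tagged human CD47 flowed over at rising concentrations, five 10 min injections, flow cell 1 as reference, 1:1 model fit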
[6] = biological target: T1, human CD47 (hCD47) expressed on cells; assay: flow cytometry, Raji cells; remark: listed apart in the source
[7] = biological target: T2, hu-sCD47-6His; extracellular domain of …; assay: SPR Biacore; head read as x 10^-4;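 for Kd: antibodies captured on anti-IgG CM5 chip, soluble His-tagged human CD47 flowed over at rising concentrations, five 10 min injections, flow cell 1 as reference, 1:1 model fit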;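 for kon: antibodies captured on anti-IgG CM5 chip, soluble His-tagged human CD47 flowed over at rising concentrations, five 10 min injections, flow cell 1 as reference, 1:1 model fit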
Source text: as §1

B1: 5A3M3 (mouse antibody from Novimmune) (antibody, V domains shown)
VH: not shown
VL: DIQMTQSPSSLSASVGDRVTITCQASQSISSYLNWYQQKPGKAPKLLIYAASSLETGVPSRFSGSGSGTDFTFTISSLQPEDIATYYCQQKHPRGPRTFGQGTKVEIKR
EC50 [1]: 0.301 µg/mL

B2: B6H12 (mouse IgG1, Abcam) (antibody, V domains shown)
VH: EVQLVESGGDLVKPGGSLKLSCAASGFTFSGYGMSWVRQTPDKRLEWVATITSGGTYTYYPDSVKGRFTISRDNAKNTLYLQIDSLKSEDTAIYFCARSLAGNAMDYWGQGTSVTVSS
VL: DIVMTQSPATLSVTPGDRVSLSCRASQTISDYLHWYQQKSHESPRLLIKFASQSISGIPSRFSGSGSGSDFTLSINSVEPEDVGVYYCQNGHGFPRTFGGGTKLEIK
Kd [2]: 5.14 nM
koff [2]: 6.59e-05 s⁻¹
kon [2]: 12900 M⁻¹ s⁻¹

B3: h20-VH2-VL3 (candidate 20.8) (antibody, human IgG4 S228P, kappa, V domains shown)
VH: QVQLVQSGAEVKKPGASVKVSCKASGYSFTDYYINWVRQAPGQGLEWMGRIYPGIGNTYYNKKFKGRVTITRDTSASTAYMELSSLRSEDTAVYYCARGHYGRGMDYWGQGTLVTVSS
VL: EIVLTQSPDSLAVSLGERATINCKSSQSLLNSIDQKNYLAWYQQKAGQSPKLLIYFASTKESGVPDRFSGSGSGTDFTLTIDSLQAEDVAVYYCQQHYSTPWTFGGGTKVEIKR
notes: hIgG4-S228P/kappa; also called h20-H2-L3
IC50 [3]: 0.079 µg/mL
binding result [4]: no binding
Kd [5]: 3.65 nM
kon [5]: 189000 M⁻¹ s⁻¹
EC50 [6]: 0.184 µg/mL
koff [7]: 0.000628 s⁻¹

B4: h20-VH5-VL4 (candidate 20.24) (antibody, human IgG4 S228P, kappa, V domains shown)
VH: QVQLVQSGAEVKKPGASVKVSCKASGYSFTDYYINWVRQAPGQGLEWMGRIYPGIGNTYYNKKFKGRVTMTRYTSISTAYMELSRLRSDDTAVYFCARGHYGRGMDYWGQGTTVTVSS
VL: DIVMTQSPDSLAVSLGERATINCKSSQSLLNSIDQKNYLAWYQQKPGQPPKLLIYFASTKESGVPDRFSGSGSGTDFTLTISSLQAEDVAVYFCQQHYSTPWTFGGGAKVEIKR
notes: hIgG4-S228P/kappa; also called h20-H5-L4
IC50 [3]: 0.133 µg/mL
binding result [4]: no binding
Kd [5]: 11 nM
kon [5]: 103000 M⁻¹ s⁻¹
EC50 [6]: 0.177 µg/mL
koff [7]: 0.00102 s⁻¹

B5: h20-VH3-VL4 (candidate 20.14) (antibody, human IgG4 S228P, kappa, V domains shown)
VH: QVQLVQSGAEVKKPGASVKVSCKASGYSFTDYYINWVRQAPGQGLEWMGRIYPGIGNTYYNKKFKGRVTVTRDTSISTAHMELSSLRSDDTAVYYCARGHYGRGMDYWGQGTAVTVSS
VL: DIVMTQSPDSLAVSLGERATINCKSSQSLLNSIDQKNYLAWYQQKPGQPPKLLIYFASTKESGVPDRFSGSGSGTDFTLTISSLQAEDVAVYFCQQHYSTPWTFGGGAKVEIKR
notes: hIgG4-S228P/kappa; also called h20-H3-L4
IC50 [3]: 0.135 µg/mL
binding result [4]: no binding
Kd [5]: 3.02 nM
kon [5]: 216000 M⁻¹ s⁻¹
EC50 [6]: 0.143 µg/mL
koff [7]: 0.000581 s⁻¹

B6: h20-VH1-VL5 (candidate 20.5) (antibody, human IgG4 S228P, kappa, V domains shown)
VH: QVQLLESGAVLARPGTSVKISCKASGYSFTDYYINWVKQRPGQGLEWIGRIYPGIGNTYYNKKFKGRAKLTAATSASIAYLEFSSLTNEDSAVYYCARGHYGRGMDYWGQGTLVTVSS
VL: DIVMTQSPDSLAVSLGERATINCKSSQSLLNSIDQKNYLAWYQQKPGQPPKLLIYFASTKESGVPDRFSGSGSGTDFTLTISGLQAEDVAVYFCQQHYSTPWTFGGGTKVEIRR
notes: hIgG4-S228P/kappa; also called h20-H1-L5
IC50 [3]: 0.111 µg/mL
binding result [4]: no binding
Kd [5]: 3.53 nM
kon [5]: 198000 M⁻¹ s⁻¹
EC50 [6]: 0.206 µg/mL
koff [7]: 0.000595 s⁻¹

B7: h20-VH1-VL3 (candidate 20.3) (antibody, human IgG4 S228P, kappa, V domains shown)
VH: QVQLLESGAVLARPGTSVKISCKASGYSFTDYYINWVKQRPGQGLEWIGRIYPGIGNTYYNKKFKGRAKLTAATSASIAYLEFSSLTNEDSAVYYCARGHYGRGMDYWGQGTLVTVSS
VL: EIVLTQSPDSLAVSLGERATINCKSSQSLLNSIDQKNYLAWYQQKAGQSPKLLIYFASTKESGVPDRFSGSGSGTDFTLTIDSLQAEDVAVYYCQQHYSTPWTFGGGTKVEIKR
notes: hIgG4-S228P/kappa; also called h20-H1-L3
IC50 [3]: 0.228 µg/mL
binding result [4]: no binding
Kd [5]: 7.33 nM
kon [5]: 131000 M⁻¹ s⁻¹
EC50 [6]: 0.184 µg/mL
koff [7]: 0.000839 s⁻¹

B8: h20-VH4-VL3 (candidate 20.18) (antibody, human IgG4 S228P, kappa, V domains shown)
VH: QVQLVQSGAEVKKPGSSVKVSCKASGYSFTDYYINWVRQAPGQGLEWMGRIYPGIGNTYYNKKFKGRVTITADKSTSTAYMELSSLRSEDTAVYYCARGHYGRGMDYWGQGTTVTVSS
VL: EIVLTQSPDSLAVSLGERATINCKSSQSLLNSIDQKNYLAWYQQKAGQSPKLLIYFASTKESGVPDRFSGSGSGTDFTLTIDSLQAEDVAVYYCQQHYSTPWTFGGGTKVEIKR
notes: hIgG4-S228P/kappa; also called h20-H4-L3
IC50 [3]: 0.142 µg/mL
binding result [4]: no binding
Kd [5]: 4.37 nM
kon [5]: 180000 M⁻¹ s⁻¹
EC50 [6]: 0.164 µg/mL
koff [7]: 0.000733 s⁻¹

B9: h20-VH3-VL5 (candidate 20.15) (antibody, human IgG4 S228P, kappa, V domains shown)
VH: QVQLVQSGAEVKKPGASVKVSCKASGYSFTDYYINWVRQAPGQGLEWMGRIYPGIGNTYYNKKFKGRVTVTRDTSISTAHMELSSLRSDDTAVYYCARGHYGRGMDYWGQGTAVTVSS
VL: DIVMTQSPDSLAVSLGERATINCKSSQSLLNSIDQKNYLAWYQQKPGQPPKLLIYFASTKESGVPDRFSGSGSGTDFTLTISGLQAEDVAVYFCQQHYSTPWTFGGGTKVEIRR
notes: hIgG4-S228P/kappa; also called h20-H3-L5
IC50 [3]: 0.113 µg/mL
binding result [4]: no binding
Kd [5]: 2.36 nM
kon [5]: 242000 M⁻¹ s⁻¹
EC50 [6]: 0.143 µg/mL
koff [7]: 0.000528 s⁻¹

B10: h20-VH5-VL3 (candidate 20.23) (antibody, human IgG4 S228P, kappa, V domains shown)
VH: QVQLVQSGAEVKKPGASVKVSCKASGYSFTDYYINWVRQAPGQGLEWMGRIYPGIGNTYYNKKFKGRVTMTRYTSISTAYMELSRLRSDDTAVYFCARGHYGRGMDYWGQGTTVTVSS
VL: EIVLTQSPDSLAVSLGERATINCKSSQSLLNSIDQKNYLAWYQQKAGQSPKLLIYFASTKESGVPDRFSGSGSGTDFTLTIDSLQAEDVAVYYCQQHYSTPWTFGGGTKVEIKR
notes: hIgG4-S228P/kappa; also called h20-H5-L3
IC50 [3]: 0.169 µg/mL
binding result [4]: no binding
Kd [5]: 9.93 nM
kon [5]: 104000 M⁻¹ s⁻¹
EC50 [6]: 0.19 µg/mL
koff [7]: 0.000841 s⁻¹

B11: h20-VH2-VL4 (candidate 20.9) (antibody, human IgG4 S228P, kappa, V domains shown)
VH: QVQLVQSGAEVKKPGASVKVSCKASGYSFTDYYINWVRQAPGQGLEWMGRIYPGIGNTYYNKKFKGRVTITRDTSASTAYMELSSLRSEDTAVYYCARGHYGRGMDYWGQGTLVTVSS
VL: DIVMTQSPDSLAVSLGERATINCKSSQSLLNSIDQKNYLAWYQQKPGQPPKLLIYFASTKESGVPDRFSGSGSGTDFTLTISSLQAEDVAVYFCQQHYSTPWTFGGGAKVEIKR
notes: hIgG4-S228P/kappa; also called h20-H2-L4
IC50 [3]: 0.123 µg/mL
binding result [4]: no binding
Kd [5]: 3.34 nM
kon [5]: 219000 M⁻¹ s⁻¹
EC50 [6]: 0.173 µg/mL
koff [7]: 0.000632 s⁻¹

B12: h20-VH1-VL4 (candidate 20.4) (antibody, human IgG4 S228P, kappa, V domains shown)
VH: QVQLLESGAVLARPGTSVKISCKASGYSFTDYYINWVKQRPGQGLEWIGRIYPGIGNTYYNKKFKGRAKLTAATSASIAYLEFSSLTNEDSAVYYCARGHYGRGMDYWGQGTLVTVSS
VL: DIVMTQSPDSLAVSLGERATINCKSSQSLLNSIDQKNYLAWYQQKPGQPPKLLIYFASTKESGVPDRFSGSGSGTDFTLTISSLQAEDVAVYFCQQHYSTPWTFGGGAKVEIKR
notes: hIgG4-S228P/kappa; also called h20-H1-L4
IC50 [3]: 0.261 µg/mL
binding result [4]: no binding
Kd [5]: 7.58 nM
kon [5]: 126000 M⁻¹ s⁻¹
EC50 [6]: 0.248 µg/mL
koff [7]: 0.000772 s⁻¹

B13: h20-VH5-VL5 (candidate 20.25) (antibody, human IgG4 S228P, kappa, V domains shown)
VH: QVQLVQSGAEVKKPGASVKVSCKASGYSFTDYYINWVRQAPGQGLEWMGRIYPGIGNTYYNKKFKGRVTMTRYTSISTAYMELSRLRSDDTAVYFCARGHYGRGMDYWGQGTTVTVSS
VL: DIVMTQSPDSLAVSLGERATINCKSSQSLLNSIDQKNYLAWYQQKPGQPPKLLIYFASTKESGVPDRFSGSGSGTDFTLTISGLQAEDVAVYFCQQHYSTPWTFGGGTKVEIRR
notes: hIgG4-S228P/kappa; also called h20-H5-L5
IC50 [3]: 0.112 µg/mL
binding result [4]: no binding
Kd [5]: 9.69 nM
kon [5]: 126000 M⁻¹ s⁻¹
EC50 [6]: 0.159 µg/mL
koff [7]: 0.00109 s⁻¹
